Measured values: the supplement of paper PMC10567573
± gives the standard deviation.

Test: protein stability index of a GFP-peptide fusion (GPS, HEK-293T) (PSI 1-6); higher = more stable
[1] = treatment: DMSO, c terminus: a fixed tail appended
[2] = treatment: MLN4924 1 uM, 8 h, c terminus: a fixed tail appended
[3] = treatment: DMSO, c terminus: native
[4] = treatment: MLN4924 1 uM, 8 h, c terminus: native
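Also: 24-mer peptide tiles fused after GFP, lentivirally expressed, FACS-sorted into six equal bins by GFP/DsRed ratio, decoded by Illumina sequencing, PSI is the read-weighted mean bin number.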

Row | Sequence | protein stability index [1] | protein stability index [2] | protein stability index [3] | protein stability index [4]
1 | LLKKKPPQQQHHKAKRNRTCRPPS [ANKRD17] | 3.93 ± 0.22 | 4 ± 0.29 | – | –
2 | HASGDASYSAGDSGDAAAQPAFTG [EPB41L3] | 5.32 ± 0.21 | 5.21 ± 0.21 | – | –
3 | AWEDSHGSQDGHFVLSCSYDGLDC [SCNN1D] | 3.73 ± 0.17 | 3.59 ± 0.19 | – | –
4 | QPELPCAMAMGTPSTTERISTSGQ [PXN] | 4.72 ± 0.12 | 4.9 ± 0.17 | – | –
5 | LAGTFHYYSCERAKKAMGYQPLVT [NSDHL] | 2.2 ± 0.12 | 2.27 ± 0.13 | – | –
6 | LSVQQPTALALEPDAIRSRSNTLR [PCDHGC5] | 4.43 ± 0.17 | 4.56 ± 0.19 | – | –
7 | KLTDKHETVVSYLPLSHIAAQMMD [ACSBG2] | 2.66 ± 0.4 | 2.98 ± 0.43 | – | –
8 | YNCGEESLQSCMHFQPNSPASDLE [NANOGP8] | 4.51 ± 0.19 | 4.17 ± 0.45 | – | –
9 | VALLRAHAGEHLLLGATKRSMVFK [HNF4A] | 2.27 ± 0.45 | 2.48 ± 0.096 | – | –
10 | AKNQSDEAKEAKGSGYEKLGPSRD [RTP4] | 5.47 ± 0.16 | 5.34 ± 0.26 | – | –
11 | GRPSMVWLSANPCPHCGDRTFYDP [PRAME] | 2.24 ± 0.26 | 2.33 ± 0.41 | – | –
12 | RNTGAYTSSGLATASFRTSKYLLE [TEKT4] | 3.1 ± 0.26 | 3.16 ± 0.22 | – | –
13 | NQSRCEMKTFVSPEAISPDLVKKI [TRIM15] | 3.98 ± 0.3 | 4.14 ± 0.37 | – | –
14 | PNRAGAPGESLECPAELRPQVPQP [TRAF3IP2] | 4.97 ± 0.16 | 5.07 ± 0.26 | – | –
15 | KTRVDLKELGQSQKEQGLSDNILS [PDZK1] | 4.55 ± 0.1 | 4.88 ± 0.4 | – | –
16 | SPDGALLATASYDTRVYIWDPHNG [WSB1] | 2.5 ± 0.41 | 2.51 ± 0.6 | – | –
17 | ALQAPHSPSKTDGKELAGTMDGEG [PBXIP1] | 5.25 ± 0.25 | 5.34 ± 0.084 | – | –
18 | KTLQEIYRKYRKLIESELSYFVIV [FBXO39] | 2.37 ± 0.41 | 2.62 ± 0.55 | – | –
19 | RFVFADRERKKLVLENLEDSCVLT [TRIB3] | 3.18 ± 0.16 | 3.37 ± 0.17 | – | –
20 | WNILKTIALGQMLSLCICGTAITS [SLC35F2] | 3.03 ± 0.37 | 3.03 ± 0.71 | – | –
21 | RKRAVPCGACLTQLFFFHLFVGVD [OR3A1] | 2.82 ± 0.3 | 2.74 ± 0.45 | – | –
22 | PQKLLGCSPALKRSHSDSLDHDIF [CDC25A] | 3.12 ± 0.28 | 3.24 ± 0.33 | – | –

Row | Sequence | protein stability index [1] | protein stability index [2] | protein stability index [3] | protein stability index [4]
23 | SNYYVAHPPVTYSQPYPTWLPCN [TENT5C] | – | – | 3.25 ± 0.19 | 3.44 ± 0.68
24 | SSSDSDFDDEEPRKFYVHIKPAPA [FCHO1] | 4.5 ± 0.27 | 4.45 ± 0.084 | – | –
25 | TFFRLLLPEAPPKKFLTLGSKFRY [EPB41L3] | 2.23 ± 0.32 | 2.85 ± 1.4 | – | –
26 | LTQKKPFADEKNILHIMVKVVKGH [RIPK4] | 2.01 ± 0.18 | 1.79 ± 0.48 | – | –
27 | IIWFSFELVVRFFACPSKTDFFKN [KCNA1] | 2.88 ± 0.37 | 3.04 ± 0.36 | – | –
28 | GRASRFLQSISWDPEDFEDAWKRP [TLE6] | 3.15 ± 0.21 | 3.13 ± 0.31 | – | –
29 | VAWHPVRPIIASISSGVVSIWAQN [RBBP5] | 2.48 ± 0.48 | 2.5 ± 0.39 | – | –
30 | TNRVKECLAKGTFSDVTFILDDGT [RHOBTB2] | 3.52 ± 0.16 | 3.63 ± 0.18 | – | –
31 | TFSGDVQLAQDDIDGIQAIYGRSQ [MMP1] | 4.27 ± 0.21 | 4.55 ± 0.14 | – | –
32 | SLLSLPVWVLMDEDVRIFFYQSPY [NCF4] | 2.56 ± 0.24 | 2.66 ± 0.47 | – | –
33 | FGATTNYGKDIVKACSLLDVAVHM [ZBED1] | 2.17 ± 0.37 | 2.1 ± 0.34 | – | –
34 | DEPQETAYRTQVSSCCLHICQGIR [PKD2L1] | 2.8 ± 0.61 | 3.1 ± 0.46 | – | –
35 | AAQAAAAAHAAQAHRERNEFPEDP [PI4K2A] | 5.36 ± 0.35 | 5.5 ± 0.1 | – | –
36 | AWHCSESGQRLGGYRTSAVASGLQ [WDFY2] | 2.84 ± 0.14 | 3.1 ± 0.16 | – | –
37 | LKIYNKREEDFPSLREYNDFLEEV [MNAT1] | 3.19 ± 0.39 | 3.68 ± 0.72 | – | –
38 | RPGGGRVKIESVKLDFKEKAQAKV [MAP2] | 4.06 ± 0.3 | 4.01 ± 0.25 | – | –
39 | EICSEPVAASPAPAGERRIYRHRI [ZNF511] | 4.27 ± 0.47 | 4.09 ± 0.26 | – | –
40 | GALMEVMQKRSKAIHSSDEDEDED [WASL] | 5.49 ± 0.19 | 5.41 ± 0.17 | – | –
41 | FIICIVIAILLYKSKPDRKRAESD [PTPRD] | 2.96 ± 0.72 | 2.97 ± 0.043 | – | –
42 | PPGYSAWIKEEAAERYLYFPNWAM [SLC6A17] | 2.33 ± 0.28 | 2.11 ± 0.4 | – | –
43 | NCFEITLELSCDKFPPEEELQREW [CPN1] | 2.77 ± 0.24 | 3.1 ± 0.22 | – | –
44 | NLSEFQHVISRSPDFASSFKIVL [CIB1] | – | – | 2.29 ± 0.45 | 2.32 ± 0.44
